From patent US6407062 (ST JUDE CHILDREN S RESEARCH HOSPITAL, dated 2000)

How the values were obtained:
[1] = target: T1, Hdm2 140-350 (polyhistidine-tagged, bacterial) (human, UniProt Q00987 140-350); assay: immunoprecipitation and blot with bacterial Hdm2 140-350
T1 construct: The sense primer places an ATG before residue 141, so position 140 of the construct may be Met; also called Hdm2 140-350 polypeptide; not shown: N-terminal polyhistidine tag of pET28a

[2] = target: T2, Hdm2 (Human Double Minute 2, full-length, untagged) (human, UniProt Q00987 1-491); assay: binding assay not described further
T2 construct: GenBank M92424 printed; also called wild type Hdm2
T2 sequence (Q00987 whole entry): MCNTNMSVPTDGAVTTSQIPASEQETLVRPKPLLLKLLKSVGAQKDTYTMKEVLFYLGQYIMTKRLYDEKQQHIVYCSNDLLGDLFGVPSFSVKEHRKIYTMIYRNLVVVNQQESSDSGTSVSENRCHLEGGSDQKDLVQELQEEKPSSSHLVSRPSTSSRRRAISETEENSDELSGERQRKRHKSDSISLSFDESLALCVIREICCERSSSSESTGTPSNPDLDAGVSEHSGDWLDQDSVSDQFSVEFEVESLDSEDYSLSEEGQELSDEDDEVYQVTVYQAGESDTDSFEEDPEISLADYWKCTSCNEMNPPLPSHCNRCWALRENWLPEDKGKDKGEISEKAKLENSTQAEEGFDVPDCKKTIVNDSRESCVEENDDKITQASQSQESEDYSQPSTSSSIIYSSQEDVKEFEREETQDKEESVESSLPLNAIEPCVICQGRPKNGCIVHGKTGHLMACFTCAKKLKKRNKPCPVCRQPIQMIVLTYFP

[3] = target: T3, Hdm2 210-304 (polyhistidine-tagged, bacterial) (human, UniProt Q00987 210-304); assay: FPLC affinity chromatography on peptide coupled to Sepharose
T3 construct: The sense primer places an ATG before residue 211; not shown: N-terminal polyhistidine tag of pET28a
T3 sequence (Q00987 210-304): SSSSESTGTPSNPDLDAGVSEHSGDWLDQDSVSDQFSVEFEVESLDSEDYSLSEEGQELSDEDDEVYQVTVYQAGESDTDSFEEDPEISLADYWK

[4] = target: T1, Hdm2 140-350 (polyhistidine-tagged, …); assay: as above
[5] = target: T1, Hdm2 140-350 (polyhistidine-tagged, …); assay: FPLC affinity chromatography, ARF polypeptide coupled to Sepharose, NaCl gradient then acid
[6] = target: T3, Hdm2 210-304 (polyhistidine-tagged, …); assay: FPLC affinity chromatography, NaCl gradient then acid
[7] = target: T4, Mdm2 (Murine Double Minute 2, full-length) (mouse, UniProt P23804 1-489); assay: His-tagged syn-ARF N37 mixed with Mdm2 from Sf9 cells, immunoprecipitation with 2A10 or anti-polyhistidine and blot
T4 construct: Full-length protein made in Sf9 cells from a baculovirus, or endogenous in NIH-3T3 cells; GenBank X58876 printed; also called wild type Mdm2; full-length Mdm2
T4 sequence (P23804 other isoform, or with tags, fused parts or gaps limits assumed): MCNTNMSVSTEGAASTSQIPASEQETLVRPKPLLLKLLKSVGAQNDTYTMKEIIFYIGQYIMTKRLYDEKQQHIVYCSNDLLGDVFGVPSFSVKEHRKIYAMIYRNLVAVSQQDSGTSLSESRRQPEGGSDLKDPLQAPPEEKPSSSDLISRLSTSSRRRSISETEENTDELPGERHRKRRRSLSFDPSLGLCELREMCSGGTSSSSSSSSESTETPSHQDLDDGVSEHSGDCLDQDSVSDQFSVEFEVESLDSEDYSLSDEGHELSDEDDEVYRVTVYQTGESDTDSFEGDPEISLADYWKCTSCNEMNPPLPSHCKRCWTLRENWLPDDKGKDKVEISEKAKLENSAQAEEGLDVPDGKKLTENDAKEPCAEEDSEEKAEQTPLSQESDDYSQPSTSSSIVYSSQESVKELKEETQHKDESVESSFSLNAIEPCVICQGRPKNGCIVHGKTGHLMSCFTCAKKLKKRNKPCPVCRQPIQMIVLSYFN

[8] = target: T5, CDK4 (mouse, endogenous) (mouse, UniProt P30285 2-303); assay: p16 immunoprecipitates blotted with antiserum to CDK4
T5 sequence (looked up): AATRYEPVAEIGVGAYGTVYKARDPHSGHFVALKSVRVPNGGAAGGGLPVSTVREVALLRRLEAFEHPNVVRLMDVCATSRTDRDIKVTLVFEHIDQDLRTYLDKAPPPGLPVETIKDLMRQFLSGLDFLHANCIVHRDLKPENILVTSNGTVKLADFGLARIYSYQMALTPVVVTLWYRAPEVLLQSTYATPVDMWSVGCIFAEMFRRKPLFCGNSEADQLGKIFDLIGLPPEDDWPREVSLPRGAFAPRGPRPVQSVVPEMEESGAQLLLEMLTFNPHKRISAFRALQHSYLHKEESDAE

[9] = target: cyclin A (mouse, endogenous) (mouse, UniProt P51943 1-422, limits assumed); assay: immunoprecipitates from cell lysates blotted with anti-ARF-p19; Sf9 baculovirus reconstruction also gave no convincing evidence
Sequence of cyclin A (mouse, endogenous) (P51943 whole entry): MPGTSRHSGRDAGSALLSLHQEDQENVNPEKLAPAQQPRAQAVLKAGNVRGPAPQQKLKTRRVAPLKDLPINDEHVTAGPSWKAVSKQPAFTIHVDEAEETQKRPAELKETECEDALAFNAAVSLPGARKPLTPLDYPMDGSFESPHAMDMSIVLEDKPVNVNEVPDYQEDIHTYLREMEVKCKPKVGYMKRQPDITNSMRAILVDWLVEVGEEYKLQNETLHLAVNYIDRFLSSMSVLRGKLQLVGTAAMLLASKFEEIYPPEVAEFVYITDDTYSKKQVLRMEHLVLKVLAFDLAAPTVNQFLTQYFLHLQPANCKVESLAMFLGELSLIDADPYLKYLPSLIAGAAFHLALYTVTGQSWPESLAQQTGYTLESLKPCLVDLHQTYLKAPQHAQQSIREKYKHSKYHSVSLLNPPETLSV

[10] = target: T5, CDK4 (mouse, endogenous); assay: as above
[11] = target: cyclin D2 (mouse, endogenous) (mouse, UniProt P30280 1-289); assay: as above
Sequence of cyclin D2 (mouse, endogenous) (P30280 whole entry): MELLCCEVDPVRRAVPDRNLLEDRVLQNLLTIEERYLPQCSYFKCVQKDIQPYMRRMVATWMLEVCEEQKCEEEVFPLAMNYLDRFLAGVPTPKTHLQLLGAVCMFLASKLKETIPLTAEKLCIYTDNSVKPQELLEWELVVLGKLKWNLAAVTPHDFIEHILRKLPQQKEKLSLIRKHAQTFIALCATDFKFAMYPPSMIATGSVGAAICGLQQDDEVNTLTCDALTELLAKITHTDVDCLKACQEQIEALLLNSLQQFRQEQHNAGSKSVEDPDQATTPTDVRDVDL

[12] = target: CDK6 (mouse, endogenous) (mouse, UniProt Q64261 1-326); assay: as above
Sequence of CDK6 (mouse, endogenous) (Q64261 whole entry): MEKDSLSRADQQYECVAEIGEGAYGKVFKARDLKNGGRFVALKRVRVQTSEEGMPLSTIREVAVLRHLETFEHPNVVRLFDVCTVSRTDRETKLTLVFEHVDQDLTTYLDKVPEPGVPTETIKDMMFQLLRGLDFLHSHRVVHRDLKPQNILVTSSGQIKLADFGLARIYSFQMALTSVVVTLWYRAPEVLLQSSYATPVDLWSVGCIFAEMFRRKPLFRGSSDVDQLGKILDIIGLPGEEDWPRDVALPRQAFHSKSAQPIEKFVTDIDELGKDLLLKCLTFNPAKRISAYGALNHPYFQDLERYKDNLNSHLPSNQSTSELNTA

[13] = target: cyclin D1 (mouse, endogenous) (mouse, UniProt P25322 1-295); assay: as above
Sequence of cyclin D1 (mouse, endogenous) (P25322 whole entry): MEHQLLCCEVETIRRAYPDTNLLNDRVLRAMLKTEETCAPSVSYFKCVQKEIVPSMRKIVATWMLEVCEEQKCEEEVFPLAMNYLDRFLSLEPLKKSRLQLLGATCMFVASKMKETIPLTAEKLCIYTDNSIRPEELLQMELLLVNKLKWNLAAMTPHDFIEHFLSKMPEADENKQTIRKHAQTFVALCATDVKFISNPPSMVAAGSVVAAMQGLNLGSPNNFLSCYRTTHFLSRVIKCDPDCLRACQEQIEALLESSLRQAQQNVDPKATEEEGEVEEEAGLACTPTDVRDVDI

[14] = target: T6, CDC2 (mouse, endogenous) (mouse, UniProt P11440 1-297); assay: as above
T6 construct: also called CDK1
T6 sequence (P11440 whole entry): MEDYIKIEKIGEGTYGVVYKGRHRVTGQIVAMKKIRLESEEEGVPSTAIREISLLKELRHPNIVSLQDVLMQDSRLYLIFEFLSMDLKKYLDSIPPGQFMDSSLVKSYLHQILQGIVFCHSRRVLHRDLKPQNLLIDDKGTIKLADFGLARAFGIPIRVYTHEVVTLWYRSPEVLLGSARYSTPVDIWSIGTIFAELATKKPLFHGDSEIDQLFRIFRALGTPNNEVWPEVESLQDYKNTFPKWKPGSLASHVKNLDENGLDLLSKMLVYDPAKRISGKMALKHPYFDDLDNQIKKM

[15] = target: endogenous wild-type p53 of mouse fibroblasts (NIH-3T3 cells, MEFs) (mouse, UniProt P02340 1-390); assay: sequential immunoprecipitation from NIH-3T3 cells; EMSA
Sequence of endogenous wild-type p53 of mouse fibroblasts (NIH-3T3 cells, MEFs) (P02340 whole entry): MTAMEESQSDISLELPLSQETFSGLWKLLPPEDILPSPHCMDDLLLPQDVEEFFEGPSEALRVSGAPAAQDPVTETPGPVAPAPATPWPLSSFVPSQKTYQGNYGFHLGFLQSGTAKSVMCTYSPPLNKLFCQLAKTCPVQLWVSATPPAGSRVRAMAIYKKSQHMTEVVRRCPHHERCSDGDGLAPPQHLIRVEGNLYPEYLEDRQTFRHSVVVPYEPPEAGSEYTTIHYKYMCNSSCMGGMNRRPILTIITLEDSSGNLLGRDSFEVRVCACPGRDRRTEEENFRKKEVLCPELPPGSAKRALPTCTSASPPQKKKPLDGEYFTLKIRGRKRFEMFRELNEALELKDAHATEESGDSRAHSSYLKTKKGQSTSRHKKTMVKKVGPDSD

T1 sequence (Q00987 140-350): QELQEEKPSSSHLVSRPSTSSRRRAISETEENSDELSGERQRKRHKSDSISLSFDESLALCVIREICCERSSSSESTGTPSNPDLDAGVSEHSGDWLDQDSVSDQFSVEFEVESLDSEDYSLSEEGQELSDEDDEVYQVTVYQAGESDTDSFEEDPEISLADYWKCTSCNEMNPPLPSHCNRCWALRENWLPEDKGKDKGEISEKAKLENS

B1: mouse p19^ARF Δ1-14 (HA-tagged deletion mutant) (other)
chain: GRPLQERVFLVKFVRSRRPRTASCALAFVNMLLRLERILRRGPHRNPGPGDDDGQRSRSSSSAQLRCRFELRGPHYLLPPGARRSAGRLPGHAGGAARVRGSAGCARCLGSPAARLGPRAGTSRHRAIFAFRWVLFVFRWVVFVYRWERRPDRRA
notes: also called p19^ARF mutant lacking amino acid residues 1-14; not shown: N-terminal HA tag of the HA-tagged ARF cDNA template
Q: Does B1 bind [1]?
A: binds

B2: mouse p19^ARF Δ1-14/Δ26-37 (HA-tagged double-deletion mutant) (other)
chain: GRPLQERVFLVCALAFVNMLLRLERILRRGPHRNPGPGDDDGQRSRSSSSAQLRCRFELRGPHYLLPPGARRSAGRLPGHAGGAARVRGSAGCARCLGSPAARLGPRAGTSRHRAIFAFRWVLFVFRWVVFVYRWERRPDRRA
notes: also called ARF Δ1-14/26-37; not shown: N-terminal HA tag
Q: Does B2 bind [1]?
A: no binding

B3: ARF N62 (mouse p19^ARF N-terminal 62 amino acids, HA-tagged) (other, not shown: small tags and cut ends)
chain: MGRRFLVTVRIQRAGRPLQERVFLVKFVRSRRPRTASCALAFVNMLLRLERILRRGPHRNPG
notes: Produced in Sf9 cells; also called HA-tagged N62; ARF N62 mutant
Q: Does B3 bind [2]?
A: binds

B4: syn-ARF N64 (polyhistidine-tagged mouse ARF residues 1-64, made in bacteria) (other)
chain: MGRRFLVTVRIQRAGRPLQERVFLVKFVRSRRPRTASCALAFVNMLLRLERILRRGPHRNPGPG
notes: also called minigene-encoded N64 polypeptide; not shown: N-terminal polyhistidine tag of pET28a
Q: Does B4 bind [2]?
A: binds

B5: mouse ARF synthetic peptide 15-25 (peptide)
peptide: GRPLQERVFLV
notes: Coupled to Sepharose; also called ARF 15-25
Q: Does B5 bind [3]?
A: no binding

Q: Does B5 bind [4]?
A: no binding

B6: syn-ARF N37 (polyhistidine-tagged mouse ARF residues 1-37, made in bacteria) (peptide)
chain: MGRRFLVTVRIQRAGRPLQERVFLVKFVRSRRPRTAS
notes: also called Synthetic ARF N37; recombinant syn-ARF N37; not shown: N-terminal polyhistidine tag of pET28a
Q: Does B6 bind [5]?
A: binds

Q: Does B6 bind [6]?
A: binds

Q: Does B6 bind [7]?
A: binds

B7: mouse p19^ARF Δ15-25 (HA-tagged deletion mutant) (other)
chain: MGRRFLVTVRIQRAKFVRSRRPRTASCALAFVNMLLRLERILRRGPHRNPGPGDDDGQRSRSSSSAQLRCRFELRGPHYLLPPGARRSAGRLPGHAGGAARVRGSAGCARCLGSPAARLGPRAGTSRHRAIFAFRWVLFVFRWVVFVYRWERRPDRRA
notes: not shown: N-terminal HA tag of the HA-tagged ARF cDNA template
Q: Does B7 bind [1]?
A: binds

B8: mouse p19^ARF Δ26-37 (HA-tagged deletion mutant) (other)
chain: MGRRFLVTVRIQRAGRPLQERVFLVCALAFVNMLLRLERILRRGPHRNPGPGDDDGQRSRSSSSAQLRCRFELRGPHYLLPPGARRSAGRLPGHAGGAARVRGSAGCARCLGSPAARLGPRAGTSRHRAIFAFRWVLFVFRWVVFVYRWERRPDRRA
notes: also called HA-ARF Δ26-37; not shown: N-terminal HA tag
Q: Does B8 bind [1]?
A: binds

B9: InK4a-p16 (mouse) (other, UniProt P51480 1-168, looked up)
chain: MESAADRLARAAAQGRVHDVRALLEAGVSPNAPNSFGRTPIQVMMMGNVHVAALLLNYGADSNCEDPTTFSRPVHDAAREGFLDTLVVLHGSGARLDVRDAWGRLPLDLAQERGHQDIVRYLRSAGCSLCSAGWSLCTAGNVAQTDGHSFSSSTPRALELRGQSQEQS
notes: not used; also called p16^INK4a
Q: Does B9 bind [8]?
A: binds

B10: ARF-p19 (mouse, full-length 169 amino acid protein) (other)
chain: MGRRFLVTVRIQRAGRPLQERVFLVKFVRSRRPRTASCALAFVNMLLRLERILRRGPHRNPGPGDDDGQRSRSSSSAQLRCRFELRGPHYLLPPGARRSAGRLPGHAGGAARVRGSAGCARCLGSPAARLGPRAGTSRHRAIFAFRWVLFVFRWVVFVYRWERRPDRRA
notes: also called p19^ARF; p19^ARF protein
Q: Does B10 bind [9]?
A: no binding

Q: Does B10 bind [10]?
A: no binding

Q: Does B10 bind [11]?
A: no binding

Q: Does B10 bind [12]?
A: no binding

Q: Does B10 bind [13]?
A: no binding

Q: Does B10 bind [14]?
A: no binding

Q: Does B10 bind [15]?
A: binds
